According to patent US20180155451A1 (published 2018):

T1: FcγRIIa R (human, UniProt P12318 34-217)
T1 construct: extracellular domain; also called FcgRIIa R type; 2aR
T1 sequence (looked up): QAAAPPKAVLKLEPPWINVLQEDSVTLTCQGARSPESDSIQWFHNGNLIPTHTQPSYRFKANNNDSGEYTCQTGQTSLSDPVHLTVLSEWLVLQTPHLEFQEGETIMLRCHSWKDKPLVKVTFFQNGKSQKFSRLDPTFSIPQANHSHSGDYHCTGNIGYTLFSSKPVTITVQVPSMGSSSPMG

T2: FcγRIIb (human, UniProt P31994 43-217)
T2 construct: extracellular domain; also called FcgRIIb; 2b
T2 sequence (looked up): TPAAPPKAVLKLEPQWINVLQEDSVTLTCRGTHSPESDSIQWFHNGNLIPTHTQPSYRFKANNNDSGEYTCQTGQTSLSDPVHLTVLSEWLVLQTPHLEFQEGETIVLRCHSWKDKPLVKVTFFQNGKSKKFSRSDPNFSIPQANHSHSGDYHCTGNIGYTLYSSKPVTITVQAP

B1: GpH7-B3 variant I332_06M/GpL16-k0 (antibody, human IgG1, kappa)
heavy: not shown
light: DIVMTQSPLSLPVTPGEPASISCQASESLVHSNRNTYLHWYLQKPGQSPQLLIYKVSNRFSGVPDRFSGSGSGTDFTLKISRVEAEDVGVYYCSQNTHVPPTFGQGTKVEIERTVAAPSVFIFPPSDEQLKSGTASVVCLLNNFYPREAKVQWKVDNALQSGNSQESVTEQDSKDSTYSLSSTLTLSKADYEKHKVYACEVTHQGLSSPVTKSFNRGEC
notes: also called Ho Ab I332_06M
B2: GpH7-A5/GpH7-B3 variant E269_01G/GpL16-k0 (antibody, human IgG1, kappa)
heavy 1: not shown
heavy 2: not shown
light: B1 light
notes: heterodimerized antibody, mutation in the GpH7-B3 chain only; also called He Ab
B3: GpH7-B3 variant K334_01G/GpL16-k0 (antibody, human IgG1, kappa)
heavy: not shown
light: B1 light
notes: also called Ho Ab K334_01G
B4: GpH7-B3 variant K334_09D/GpL16-k0 (antibody, human IgG1, kappa)
heavy: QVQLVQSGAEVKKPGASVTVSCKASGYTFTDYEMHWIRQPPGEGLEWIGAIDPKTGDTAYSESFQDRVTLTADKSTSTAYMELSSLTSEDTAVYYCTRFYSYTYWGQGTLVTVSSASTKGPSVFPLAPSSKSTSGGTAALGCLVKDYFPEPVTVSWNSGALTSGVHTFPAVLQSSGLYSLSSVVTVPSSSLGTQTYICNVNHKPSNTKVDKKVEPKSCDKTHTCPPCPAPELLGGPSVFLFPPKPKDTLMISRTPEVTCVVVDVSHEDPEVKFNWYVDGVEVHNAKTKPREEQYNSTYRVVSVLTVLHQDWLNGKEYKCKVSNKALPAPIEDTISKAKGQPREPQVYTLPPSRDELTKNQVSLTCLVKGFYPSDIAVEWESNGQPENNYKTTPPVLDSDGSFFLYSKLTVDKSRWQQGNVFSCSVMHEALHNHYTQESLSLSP
light: B1 light
notes: also called Ho Ab K334_09D
B5: GpH7-B3 variant T335_10E/GpL16-k0 (antibody, human IgG1, kappa)
heavy: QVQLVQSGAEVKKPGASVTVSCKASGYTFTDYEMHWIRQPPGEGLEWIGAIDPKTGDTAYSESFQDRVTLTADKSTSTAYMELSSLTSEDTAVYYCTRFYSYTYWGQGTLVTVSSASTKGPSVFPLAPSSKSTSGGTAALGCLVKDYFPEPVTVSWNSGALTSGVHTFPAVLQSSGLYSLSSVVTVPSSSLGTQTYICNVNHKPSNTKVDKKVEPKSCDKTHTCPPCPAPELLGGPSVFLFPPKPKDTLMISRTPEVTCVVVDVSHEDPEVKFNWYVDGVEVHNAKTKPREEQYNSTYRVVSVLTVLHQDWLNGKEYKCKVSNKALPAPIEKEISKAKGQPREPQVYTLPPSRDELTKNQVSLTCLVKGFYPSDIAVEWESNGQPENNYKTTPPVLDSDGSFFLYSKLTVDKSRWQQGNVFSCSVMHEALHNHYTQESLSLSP
light: B1 light
notes: also called Ho Ab T335_10E
B6: GpH7-B3 variant I336_18N/GpL16-k0 (antibody, human IgG1, kappa)
heavy: not shown
light: B1 light
notes: also called Ho Ab I336_18N
B7: GpH7-B3 variant P238_10E/GpL16-k0 (antibody, human IgG1, kappa)
heavy: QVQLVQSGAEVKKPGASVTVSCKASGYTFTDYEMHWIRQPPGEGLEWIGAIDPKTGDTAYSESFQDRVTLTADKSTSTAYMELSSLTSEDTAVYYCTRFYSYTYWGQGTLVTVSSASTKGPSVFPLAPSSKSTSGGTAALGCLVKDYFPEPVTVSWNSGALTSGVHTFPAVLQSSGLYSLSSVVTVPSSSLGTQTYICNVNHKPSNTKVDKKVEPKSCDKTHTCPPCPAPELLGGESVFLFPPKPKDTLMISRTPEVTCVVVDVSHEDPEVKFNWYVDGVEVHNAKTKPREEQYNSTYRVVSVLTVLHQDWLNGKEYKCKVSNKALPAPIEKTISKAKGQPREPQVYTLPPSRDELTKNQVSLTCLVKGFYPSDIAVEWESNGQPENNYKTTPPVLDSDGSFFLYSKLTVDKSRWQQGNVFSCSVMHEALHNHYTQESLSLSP
light: B1 light
notes: also called Ho Ab P238_10E
B8: GpH7-A5/GpH7-B3 variant D265_12R/GpL16-k0 (antibody, human IgG1, kappa)
heavy 1: not shown
heavy 2: not shown
light: B1 light
notes: as for B2
B9: GpH7-B3-03-20W/GpL16-k0 (antibody, human IgG1, kappa)
heavy: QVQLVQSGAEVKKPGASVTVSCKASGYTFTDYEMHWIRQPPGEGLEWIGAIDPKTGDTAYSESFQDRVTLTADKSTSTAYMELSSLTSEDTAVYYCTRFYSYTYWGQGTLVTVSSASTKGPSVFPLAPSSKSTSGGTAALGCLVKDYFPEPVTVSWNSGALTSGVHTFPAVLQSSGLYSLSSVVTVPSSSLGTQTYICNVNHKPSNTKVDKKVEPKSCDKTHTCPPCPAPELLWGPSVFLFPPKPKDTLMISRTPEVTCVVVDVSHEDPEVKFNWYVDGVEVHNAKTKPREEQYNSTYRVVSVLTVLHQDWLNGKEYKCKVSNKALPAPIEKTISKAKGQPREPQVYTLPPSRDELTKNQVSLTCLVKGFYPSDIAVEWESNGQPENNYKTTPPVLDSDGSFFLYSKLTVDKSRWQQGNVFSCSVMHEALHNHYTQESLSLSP
light: B1 light
notes: also called Ho Ab G236_20W; GpH7-B3 variant G236_20W/GpL16-k0
B10: GpH7-B3 variant V266_08L/GpL16-k0 (antibody, human IgG1, kappa)
heavy: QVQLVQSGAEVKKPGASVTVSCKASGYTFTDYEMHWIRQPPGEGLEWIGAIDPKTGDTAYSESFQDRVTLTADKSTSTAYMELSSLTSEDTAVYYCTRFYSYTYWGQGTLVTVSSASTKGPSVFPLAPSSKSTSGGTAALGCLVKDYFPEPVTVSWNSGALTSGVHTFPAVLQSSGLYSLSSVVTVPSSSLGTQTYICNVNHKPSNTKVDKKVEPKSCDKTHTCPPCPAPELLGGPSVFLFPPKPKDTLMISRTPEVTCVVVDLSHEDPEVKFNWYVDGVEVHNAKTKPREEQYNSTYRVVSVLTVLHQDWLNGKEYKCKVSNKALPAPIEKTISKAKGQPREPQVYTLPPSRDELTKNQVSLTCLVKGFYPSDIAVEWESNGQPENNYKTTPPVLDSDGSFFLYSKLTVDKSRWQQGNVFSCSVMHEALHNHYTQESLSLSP
light: B1 light
notes: also called Ho Ab V266_08L
B11: GpH7-B3 variant S324_02A/GpL16-k0 (antibody, human IgG1, kappa)
heavy: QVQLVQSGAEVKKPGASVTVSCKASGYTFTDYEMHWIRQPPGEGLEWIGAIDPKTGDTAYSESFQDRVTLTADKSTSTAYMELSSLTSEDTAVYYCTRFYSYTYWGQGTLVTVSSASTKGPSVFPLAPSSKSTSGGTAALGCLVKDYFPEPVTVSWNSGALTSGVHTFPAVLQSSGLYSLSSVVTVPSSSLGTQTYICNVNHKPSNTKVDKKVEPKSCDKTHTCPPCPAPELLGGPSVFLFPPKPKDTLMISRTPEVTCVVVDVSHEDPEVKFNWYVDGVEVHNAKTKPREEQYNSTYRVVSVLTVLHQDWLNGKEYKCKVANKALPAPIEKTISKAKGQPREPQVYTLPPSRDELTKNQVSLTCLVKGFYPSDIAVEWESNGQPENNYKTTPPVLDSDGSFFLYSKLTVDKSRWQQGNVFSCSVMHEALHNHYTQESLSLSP
light: B1 light
notes: also called Ho Ab S324_02A
B12: GpH7-B3 variant S337_18N/GpL16-k0 (antibody, human IgG1, kappa)
heavy: not shown
light: B1 light
notes: also called Ho Ab S337_18N
B13: GpH7-B3 variant T335_16H/GpL16-k0 (antibody, human IgG1, kappa)
heavy: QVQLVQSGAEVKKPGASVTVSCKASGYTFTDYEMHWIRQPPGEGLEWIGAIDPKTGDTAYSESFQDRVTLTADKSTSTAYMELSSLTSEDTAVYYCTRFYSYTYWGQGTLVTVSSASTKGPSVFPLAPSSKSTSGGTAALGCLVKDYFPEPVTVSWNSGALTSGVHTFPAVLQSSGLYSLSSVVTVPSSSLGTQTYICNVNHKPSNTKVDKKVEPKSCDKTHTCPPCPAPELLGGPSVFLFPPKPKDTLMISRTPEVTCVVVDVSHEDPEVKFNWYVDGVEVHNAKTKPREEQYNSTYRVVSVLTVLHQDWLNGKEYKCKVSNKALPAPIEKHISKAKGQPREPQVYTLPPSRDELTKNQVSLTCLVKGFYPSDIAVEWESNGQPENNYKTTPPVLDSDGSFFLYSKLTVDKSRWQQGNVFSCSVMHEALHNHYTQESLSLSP
light: B1 light
notes: also called Ho Ab T335_16H
B14: GpH7-B3 variant K326_07I/GpL16-k0 (antibody, human IgG1, kappa)
heavy: not shown
light: B1 light
notes: also called Ho Ab K326_07I
B15: GpH7-B3 variant S337_20W/GpL16-k0 (antibody, human IgG1, kappa)
heavy: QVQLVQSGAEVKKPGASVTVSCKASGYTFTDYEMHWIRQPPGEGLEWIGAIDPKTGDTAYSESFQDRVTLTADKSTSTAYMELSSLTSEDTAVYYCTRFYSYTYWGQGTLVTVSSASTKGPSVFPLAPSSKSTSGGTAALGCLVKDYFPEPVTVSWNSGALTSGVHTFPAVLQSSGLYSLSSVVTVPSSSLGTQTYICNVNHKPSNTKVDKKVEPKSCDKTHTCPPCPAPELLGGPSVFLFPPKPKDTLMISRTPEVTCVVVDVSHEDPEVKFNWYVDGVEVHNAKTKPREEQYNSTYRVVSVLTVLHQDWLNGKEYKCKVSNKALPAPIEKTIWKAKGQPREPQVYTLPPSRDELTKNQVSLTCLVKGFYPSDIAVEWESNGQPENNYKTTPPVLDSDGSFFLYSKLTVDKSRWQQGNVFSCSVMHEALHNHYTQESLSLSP
light: B1 light
notes: also called Ho Ab S337_20W
B16: GpH7-B3 variant S267_09D/GpL16-k0 (antibody, human IgG1, kappa)
heavy: not shown
light: B1 light
notes: also called Ho Ab S267_09D
B17: GpH7-B3 variant L234_07I/GpL16-k0 (antibody, human IgG1, kappa)
heavy: not shown
light: B1 light
notes: also called Ho Ab L234_07I
B18: GpH7-B3 variant S337_15Y/GpL16-k0 (antibody, human IgG1, kappa)
heavy: not shown
light: B1 light
notes: also called Ho Ab S337_15Y
B19: GpH7-B3 variant I336_02A/GpL16-k0 (antibody, human IgG1, kappa)
heavy: not shown
light: B1 light
notes: also called Ho Ab I336_02A
B20: GpH7-B3 variant T335_07I/GpL16-k0 (antibody, human IgG1, kappa)
heavy: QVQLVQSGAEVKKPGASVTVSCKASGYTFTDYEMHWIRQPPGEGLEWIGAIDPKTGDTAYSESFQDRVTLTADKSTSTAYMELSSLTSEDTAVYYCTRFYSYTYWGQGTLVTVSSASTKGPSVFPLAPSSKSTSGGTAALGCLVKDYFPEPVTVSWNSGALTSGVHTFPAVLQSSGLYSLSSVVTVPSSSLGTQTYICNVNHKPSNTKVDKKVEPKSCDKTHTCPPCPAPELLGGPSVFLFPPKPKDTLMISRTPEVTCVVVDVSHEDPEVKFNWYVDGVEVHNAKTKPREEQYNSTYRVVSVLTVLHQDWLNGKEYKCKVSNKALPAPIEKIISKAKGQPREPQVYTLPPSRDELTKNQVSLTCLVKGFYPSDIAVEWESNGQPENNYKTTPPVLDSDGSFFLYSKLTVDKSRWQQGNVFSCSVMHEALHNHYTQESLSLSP
light: B1 light
notes: also called Ho Ab T335_07I
B21: GpH7-B3 variant K326_08L/GpL16-k0 (antibody, human IgG1, kappa)
heavy: not shown
light: B1 light
notes: also called Ho Ab K326_08L
B22: GpH7-A5/GpH7-B3 variant D265_10E/GpL16-k0 (antibody, human IgG1, kappa)
heavy 1: not shown
heavy 2: not shown
light: B1 light
notes: as for B2
B23: GpH7-B3 variant T335_15Y/GpL16-k0 (antibody, human IgG1, kappa)
heavy: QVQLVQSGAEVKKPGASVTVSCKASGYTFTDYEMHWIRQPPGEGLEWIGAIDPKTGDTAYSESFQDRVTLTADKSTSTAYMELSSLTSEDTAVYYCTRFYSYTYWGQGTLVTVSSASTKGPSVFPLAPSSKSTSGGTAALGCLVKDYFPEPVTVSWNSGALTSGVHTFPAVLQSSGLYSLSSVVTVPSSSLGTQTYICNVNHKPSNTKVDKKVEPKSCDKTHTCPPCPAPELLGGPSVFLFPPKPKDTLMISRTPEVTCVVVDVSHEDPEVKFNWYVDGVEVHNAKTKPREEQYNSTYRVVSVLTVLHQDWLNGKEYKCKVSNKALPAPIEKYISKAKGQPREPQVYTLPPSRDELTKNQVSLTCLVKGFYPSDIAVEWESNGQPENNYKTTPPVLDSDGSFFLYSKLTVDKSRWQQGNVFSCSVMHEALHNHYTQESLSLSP
light: B1 light
notes: also called Ho Ab T335_15Y

What was measured:
[1] = molecular target: T3, FcγRIIIa extracellular domain with C-terminal His tag (human, UniProt P08637 17-208); assay: SPR relative binding; GpH7-B3/GpL16-k0 = 100
T3 construct: extracellular domain; also called FcgRIIIa; 3a; not shown: His tag at the C terminus
Method: (§1) Analysis of interaction between objective antibody and the FcγR was carried out using Biacore T100 (GE Healthcare). HBS-EP+ (GE Healthcare) was used as the running buffer, and the measurement temperature was set to 25° C. Chips produced by immobilizing the antigen peptide by the amine coupling method to a Series S Sencor Chip CM5 (GE Healthcare), or alternatively, chips produced by allowing preliminarily biotinylated antigen peptides to interact with and immobilize onto a Series S Sensor Chip SA (certified) (GE Healthcare) were used. Antibodies of interest were captured onto an antigen peptide-immobilized chip, and allowed to interact to each FcγR diluted with running buffer. To regenerate and repeatedly use the chip, the antibodies captured on the chip were washed off by reacting 10 mM glycine-HCl, pH 1.5.
The FcγR-binding activity of each antibody was assessed primarily using as an indicator the FcγR-binding activity and dissociation constant for FcγR.

[2] = molecular target: T1, FcγRIIa R; assay: SPR; He/Con_2aR divided by He/Con_2b (FcγRIIb as reference)
Method: (§2) The heterodimerized antibodies He Abs in which one of the H chains was introduced with an alteration were assayed for their binding activities to each activating FcγR and inhibitory FcγR according to the method described in Example 4. […] The activating FcγRs in FIGS. 26, 27, 28, and 29 are FcγRIa, FcγRIIa (R), FcγRIIa (H), and FcγRIIIa, respectively.
as §1

[3] = molecular target: T1, FcγRIIa R; assay: SPR (Biacore), antibody captured, FcγR as analyte; relative binding
Method: as §2, §1

[4] = molecular target: T2, FcγRIIb; assay: as above
Method: as §2, §1

T3 sequence (P08637 17-208): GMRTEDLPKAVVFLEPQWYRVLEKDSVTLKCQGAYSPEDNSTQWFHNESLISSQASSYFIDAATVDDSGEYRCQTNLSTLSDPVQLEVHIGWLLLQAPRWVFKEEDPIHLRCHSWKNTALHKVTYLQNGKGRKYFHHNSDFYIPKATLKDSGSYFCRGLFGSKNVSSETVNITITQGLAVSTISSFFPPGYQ

Row | Binder | Ho/Con_3a [1] | further results
1 | B1 | 95.4 % of control | –
2 | B2 | – | IIaR/IIb (He_2aR/2b) [2]: 1.27 ratio; He/Con_2aR (IIaR binding) [3]: 65.3 % of GpH7-A5/GpH7-B3/GpL16-k0 (=100); He/Con_2b (IIb binding) [4]: 51.5 % of GpH7-A5/GpH7-B3/GpL16-k0 (=100)
3 | B3 | 104 % of control | –
4 | B4 | 150 % of control | –
5 | B5 | 102 % of control | –
6 | B6 | 101 % of control | –
7 | B7 | 0.8 % of control | –
8 | B8 | – | IIaR/IIb (He_2aR/2b) [2]: 2.15 ratio; He/Con_2aR (IIaR binding) [3]: 32.2 % of GpH7-A5/GpH7-B3/GpL16-k0 (=100); He/Con_2b (IIb binding) [4]: 15 % of GpH7-A5/GpH7-B3/GpL16-k0 (=100)
9 | B9 | 58.3 % of control | –
10 | B10 | 90.5 % of control | –
11 | B11 | 99.8 % of control | –
12 | B12 | 102 % of control | –
13 | B13 | 99.5 % of control | –
14 | B14 | 134 % of control | –
15 | B15 | 87.8 % of control | –
16 | B16 | 160 % of control | –
17 | B17 | 98.2 % of control | –
18 | B18 | 99 % of control | –
19 | B19 | 104 % of control | –
20 | B20 | 107 % of control | –
21 | B21 | 114 % of control | –
22 | B22 | – | IIaR/IIb (He_2aR/2b) [2]: 1.52 ratio; He/Con_2aR (IIaR binding) [3]: 58.2 % of GpH7-A5/GpH7-B3/GpL16-k0 (=100); He/Con_2b (IIb binding) [4]: 38.2 % of GpH7-A5/GpH7-B3/GpL16-k0 (=100)
23 | B23 | 91.5 % of control | –
